{"source": "the supplement of paper PMC10598134", "experiment": "collision cross section of modified peptide (TIMS, N2, iRT-aligned); higher = larger / more extended gas-phase ion", "how_it_was_run": "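Collision cross section values rest on the Mason-Schamp equation applied to calibrated, run-aligned mobility data from synthetic peptides. Mobility (1/K0) was calibrated with three reference ions and aligned per run to the median iRT peptide deviation, and 1–3 technical replicates of the most abundant feature per charge state were averaged. Data came from a timsTOF Pro/HT in dda-PASEF mode (nitrogen, ~2.4 mbar) after a 120-min nanoflow C18 gradient at 60 °C.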", "key": {"[1]": {"settings": "charge state: 2, modification: Methyl (K)"}, "[2]": {"settings": "charge state: 3, modification: Methyl (K)"}, "[3]": {"settings": "charge state: 2, modification: Acetyl (K)"}, "[4]": {"settings": "charge state: 3, modification: Acetyl (K)"}, "[5]": {"settings": "charge state: 3, modification: Methyl (R)"}, "[6]": {"settings": "charge state: 2, modification: Crotonyl"}, "[7]": {"settings": "charge state: 2, modification: Nitro (Y)"}, "[8]": {"settings": "charge state: 2, modification: Propionyl"}, "[9]": {"settings": "charge state: 2, modification: Butyryl"}, "[10]": {"settings": "charge state: 2, modification: Phospho (Y)"}, "[11]": {"settings": "charge state: 2, modification: GlyGly (K)"}, "[12]": {"settings": "charge state: 3, modification: GlyGly (K)"}, "[13]": {"settings": "charge state: 2, modification: Hydroxyproline"}, "[14]": {"settings": "charge state: 2, modification: Biotin"}}, "note": "± gives the standard deviation.", "data": [{"sequence": "ASAISIKLGSSK [_ASAISIK(Malonyl)LGSSK_]", "values": [{"measurement": "collision cross section", "setting": "charge state: 2, modification: Malonyl", "value": "370.34 ± 0.77", "unit": "Å²"}]}, {"sequence": "VFIGNLNTLVVKK [_VFIGNLNTLVVK(Methyl (K))K_]", "values": [{"measurement": "collision cross section", "setting": "[1]", "value": "423.04 ± 1.2", "unit": "Å²"}, {"measurement": "collision cross section", "setting": "[2]", "value": "477.31 ± 4.3", "unit": "Å²"}]}, {"sequence": "TFGKAAGPSLSHTSGGTQSK [_TFGK(Acetyl (K))AAGPSLSHTSGGTQSK_]", "values": [{"measurement": "collision cross section", "setting": "[3]", "value": "486.77 ± 4.6", "unit": "Å²"}, {"measurement": "collision cross section", "setting": "[4]", "value": "516.14 ± 6", "unit": "Å²"}]}, {"sequence": "SGGGYGGDRSSGGGYSGDR [_SGGGYGGDR(Methyl (R))SSGGGYSGDR_]", "values": [{"measurement": "collision cross section", "setting": "[5]", "value": "484.52 ± 1.5", "unit": "Å²"}]}, {"sequence": "IDLPAENSNSETIIITGKR [_IDLPAENSNSETIIITGK(Gluratylation)R_]", "values": [{"measurement": "collision cross section", "setting": "charge state: 2, modification: Glutarylation", "value": "499.21 ± 1.9", "unit": "Å²"}]}, {"sequence": "VGEFSGANKEK [_VGEFSGANK(Crotonyl)EK_]", "values": [{"measurement": "collision cross section", "setting": "[6]", "value": "370.98 ± 0.8", "unit": "Å²"}]}, {"sequence": "SYVDTGGVSR [_SY(Nitro (Y))VDTGGVSR_]", "values": [{"measurement": "collision cross section", "setting": "[7]", "value": "342.4 ± 0.16", "unit": "Å²"}]}, {"sequence": "SGKFTQQDIDEAK [_SGK(Propionyl)FTQQDIDEAK_]", "values": [{"measurement": "collision cross section", "setting": "[8]", "value": "414.71 ± 0.97", "unit": "Å²"}]}, {"sequence": "STGLELETPSLVPVKK [_STGLELETPSLVPVK(Crotonyl)K_]", "values": [{"measurement": "collision cross section", "setting": "[6]", "value": 437.59, "unit": "Å²"}, {"measurement": "collision cross section", "setting": "charge state: 3, modification: Crotonyl", "value": 521.61, "unit": "Å²"}]}, {"sequence": "VDVEVPDVSLEGPEGKLK [_VDVEVPDVSLEGPEGK(Butyryl)LK_]", "values": [{"measurement": "collision cross section", "setting": "[9]", "value": "469.33 ± 0.49", "unit": "Å²"}]}, {"sequence": "AIQLNPSYIR [_AIQLNPSY(Phospho (Y))IR_]", "values": [{"measurement": "collision cross section", "setting": "[10]", "value": "384.89 ± 0.65", "unit": "Å²"}]}, {"sequence": "SEGFDTYR [_SEGFDTY(Phospho (Y))R_]", "values": [{"measurement": "collision cross section", "setting": "[10]", "value": "338.3 ± 0.78", "unit": "Å²"}]}, {"sequence": "DTPTSAGPNSFNKGK [_DTPTSAGPNSFNK(GlyGly (K))GK_]", "values": [{"measurement": "collision cross section", "setting": "[11]", "value": "413.5 ± 3.1", "unit": "Å²"}, {"measurement": "collision cross section", "setting": "[12]", "value": "464.37 ± 0.33", "unit": "Å²"}]}, {"sequence": "VGVEAKQPNSAIR [_VGVEAKQP(Hydroxyproline)NSAIR_]", "values": [{"measurement": "collision cross section", "setting": "[13]", "value": "405.11 ± 0.27", "unit": "Å²"}, {"measurement": "collision cross section", "setting": "charge state: 3, modification: Hydroxyproline", "value": "482.65 ± 0.83", "unit": "Å²"}]}, {"sequence": "SFDEVEGVFGRGGGR [_SFDEVEGVFGR(Citrullination (R))GGGR_]", "values": [{"measurement": "collision cross section", "setting": "charge state: 2, modification: Citrullination (R)", "value": "404.76 ± 0.98", "unit": "Å²"}, {"measurement": "collision cross section", "setting": "charge state: 3, modification: Citrullination (R)", "value": 503.12, "unit": "Å²"}]}, {"sequence": "SKLLFSNTAAQK [_SK(Propionyl)LLFSNTAAQK_]", "values": [{"measurement": "collision cross section", "setting": "[8]", "value": "398.2 ± 1.4", "unit": "Å²"}]}, {"sequence": "AAQASDLEKIHLDEK [_AAQASDLEK(GlyGly (K))IHLDEK_]", "values": [{"measurement": "collision cross section", "setting": "[11]", "value": "469.33 ± 0.94", "unit": "Å²"}, {"measurement": "collision cross section", "setting": "[12]", "value": "508.49 ± 1.9", "unit": "Å²"}]}, {"sequence": "VGEFSGANKEK [_VGEFSGANK(Butyryl)EK_]", "values": [{"measurement": "collision cross section", "setting": "[9]", "value": "369.78 ± 1.3", "unit": "Å²"}]}, {"sequence": "RGATPPAPPRR [_R(Methyl (R))GATPPAPPRR_]", "values": [{"measurement": "collision cross section", "setting": "[5]", "value": "465.62 ± 0.37", "unit": "Å²"}]}, {"sequence": "ASAISIKLGSSK [_ASAISIK(Trimethyl (K))LGSSK_]", "values": [{"measurement": "collision cross section", "setting": "charge state: 2, modification: Trimethyl (K)", "value": "386.31 ± 1.1", "unit": "Å²"}, {"measurement": "collision cross section", "setting": "charge state: 3, modification: Trimethyl (K)", "value": "448.52 ± 3.3", "unit": "Å²"}]}, {"sequence": "SGNLTEDDKHNNAK [_SGNLTEDDK(hydroxyisobutyryl)HNNAK_]", "values": [{"measurement": "collision cross section", "setting": "charge state: 2, modification: hydroxyisobutyryl", "value": "427.86 ± 0.82", "unit": "Å²"}, {"measurement": "collision cross section", "setting": "charge state: 3, modification: hydroxyisobutyryl", "value": "488.54 ± 1.1", "unit": "Å²"}]}, {"sequence": "VSPASSVDSNIPSSQGYKK [_VSPASSVDSNIPSSQGYK(Dimethyl (K))K_]", "values": [{"measurement": "collision cross section", "setting": "charge state: 3, modification: Dimethyl (K)", "value": "536.37 ± 0.42", "unit": "Å²"}]}, {"sequence": "AYPLADAHLTK [_AY(Nitro (Y))PLADAHLTK_]", "values": [{"measurement": "collision cross section", "setting": "[7]", "value": "382.67 ± 0.55", "unit": "Å²"}]}, {"sequence": "YEEIVKEVSTYIK [_YEEIVK(Methyl (K))EVSTYIK_]", "values": [{"measurement": "collision cross section", "setting": "[1]", "value": "440.62 ± 1.8", "unit": "Å²"}, {"measurement": "collision cross section", "setting": "[2]", "value": "492.07 ± 3.2", "unit": "Å²"}]}, {"sequence": "DNNNSNNRGSYNR [_DNNNSNNR(Methyl (R))GSYNR_]", "values": [{"measurement": "collision cross section", "setting": "[5]", "value": "460.8 ± 2.4", "unit": "Å²"}]}, {"sequence": "GSGLGARGSSYGVTSTESYK [_GSGLGAR(Methyl (R))GSSYGVTSTESYK_]", "values": [{"measurement": "collision cross section", "setting": "[5]", "value": "519.94 ± 0.91", "unit": "Å²"}]}, {"sequence": "ISSNFSSIIAEKLR [_ISSNFSSIIAEK(Succinyl)LR_]", "values": [{"measurement": "collision cross section", "setting": "charge state: 2, modification: Succinyl", "value": "432.83 ± 0.84", "unit": "Å²"}, {"measurement": "collision cross section", "setting": "charge state: 3, modification: Succinyl", "value": 512.74, "unit": "Å²"}]}, {"sequence": "IISSIEQKEENK [_IISSIEQK(GlyGly (K))EENK_]", "values": [{"measurement": "collision cross section", "setting": "[11]", "value": "403.29 ± 1.5", "unit": "Å²"}, {"measurement": "collision cross section", "setting": "[12]", "value": 482.93, "unit": "Å²"}]}, {"sequence": "SGFGKFER [_SGFGK(Formyl)FER_]", "values": [{"measurement": "collision cross section", "setting": "charge state: 2, modification: Formyl", "value": "326.95 ± 0.99", "unit": "Å²"}]}, {"sequence": "VTGGIFSVTK [_VTGGIFS(HexNAc (ST))VTK_]", "values": [{"measurement": "collision cross section", "setting": "charge state: 2, modification: HexNAc (ST)", "value": "361.54 ± 1.2", "unit": "Å²"}]}, {"sequence": "GEPGIPAIPGIR [_GEPGIP(Hydroxyproline)AIPGIR_]", "values": [{"measurement": "collision cross section", "setting": "[13]", "value": "346.11 ± 0.79", "unit": "Å²"}]}, {"sequence": "DYSSGFGGKYGVQADR [_DYSSGFGGK(Crotonyl)YGVQADR_]", "values": [{"measurement": "collision cross section", "setting": "[6]", "value": "437.04 ± 0.54", "unit": "Å²"}]}, {"sequence": "LLEQKTQESQK [_LLEQK(Biotin)TQESQK_]", "values": [{"measurement": "collision cross section", "setting": "[14]", "value": "419.49 ± 1.1", "unit": "Å²"}]}, {"sequence": "LGVATVAKGVCGACK [_LGVATVAK(Methyl (K))GVCGACK_]", "values": [{"measurement": "collision cross section", "setting": "[1]", "value": "433.3 ± 0.37", "unit": "Å²"}, {"measurement": "collision cross section", "setting": "[2]", "value": "457.05 ± 3.9", "unit": "Å²"}]}, {"sequence": "TLDEILQEKK [_TLDEILQEK(Biotin)K_]", "values": [{"measurement": "collision cross section", "setting": "[14]", "value": 403.31, "unit": "Å²"}]}, {"sequence": "GGPGSTLSFVGKR [_GGPGSTLSFVGK(Acetyl (K))R_]", "values": [{"measurement": "collision cross section", "setting": "[3]", "value": "381.14 ± 0.21", "unit": "Å²"}, {"measurement": "collision cross section", "setting": "[4]", "value": "429.09 ± 1.1", "unit": "Å²"}]}]}
